Measured values published in patent US20140314744A1 (NEOTOPE BIOSCIENCES, published 2014).

Target: T1, Recombinant human IgG1 Fc (R&D systems) (human, UniProt P01857-1 100-330 = IgG part)
T1 construct: domain: Fc; Negative control surface in the Biacore experiment; also called hIgG1-Fc
Test: SPR (Biacore T200)

B1: Recombinant human laminin-α4 (R&D systems) (ligand, UniProt Q16363-2 826-1816, looked up)
chain: QVSMMFDGQSAVEVHSRTSMDDLKAFTSLSLYMKPPVKRPELTETADQFILYLGSKNAKKEYMGLAIKNDNLVYVYNLGTKDVEIPLDSKPVSSWPAYFSIVKIERVGKHGKVFLTVPSLSSTAEEKFIKKGEFSGDDSLLDLDPEDTVFYVGGVPSNFKLPTSLNLPGFVGCLELATLNNDVISLYNFKHIYNMDPSTSVPCARDKLAFTQSRAASYFFDGSGYAVVRDITRRGKFGQVTRFDIEVRTPADNGLILLMVNGSMFFRLEMRNGYLHVFYDFGFSGGPVHLEDTLKKAQINDAKYHEISIIYHNDKKMILVVDRRHVKSMDNEKMKIPFTDIYIGGAPPEILQSRALRAHLPLDINFRGCMKGFQFQKKDFNLLEQTETLGVGYGCPEDSLISRRAYFNGQSFIASIQKISFFDGFEGGFNFRTLQPNGLLFYYASGSDVFSISLDNGTVIMDVKGIKVQSVDKQYNDGLSHFVISSVSPTRYELIVDKSRVGSKNPTKGKIEQTQASEKKFYFGGSPISAQYANFTGCISNAYFTRVDRDVEVEDFQRYTEKVHTSLYECPIESSPLFLLHKKGKNLSKPKASQNKKGGKSKDAPSWDPVALKLPERNTPRNSHCHLSNSPRAIEHAYQYGGTANSRQEFEHLKGDFGAKSQFSIRLRTRSSHGMIFYVSDQEENDFMTLFLAHGRLVYMFNVGHKKLKIRSQEKYNDGLWHDVIFIRERSSGRLVIDGLRVLEESLPPTEATWKIKGPIYLGGVAPGKAVKNVQINSIYSFSGCLSNLQLNGASITSASQTFSVTPCFEGPMETGTYFSTEGGYVVLDESFNIGLKFEIAFEVRPRSSSGTLVHGHSVNGEYLNVHMKNGQVIVKVNNGIRDFSTSVTPKQSLCDGRWHRITVIRDSNVVQLDVDSEVNHVVGPLNPKPIDHREPVFVGGVPESLLTPRLAPSKPFTGCIRHFVIDGHPVSFSKAALVSGAVSINSCPAA
notes: also called laminin 4A chain; laminin A4 (α4) chain
**Q.** Does B1 bind?
**A.** no binding (tested: 5-175 nM)
